Test results published in patent US20250152743A1, “SYNPOPTOSIS CIRCUITS FOR PROGRAMMABLE CELL DEATH CONTROL” (California Institute of Technology, priority 2023, published 2025).
Read-outs that look alike come from different tables or passages of the source.

System: HEK cells
Assay: Transient DNA transfection of HEK cells, Annexin/Sytox staining, flow cytometry
Format: cell-based, human
Settings: for pyroptosis, Sytox staining: with TEVP / cognate protease
Description: HEK cells were transiently co-transfected with DNA encoding the circuits, often along with Cherry, a fluorescent protein marker, and cells were analyzed by flow cytometry 16 to 24 hours later. To quantify cell death, the cells were strained with Annexin, Sytox, or both. Annexin stains apoptotic cells by binding to phosphatidylserine exposed on the outer leaflet, and pyroptotic cells by binding to phosphatidylserine in the inner leaflet after membrane permeabilization. In contrast, Sytox, a membrane-impermeable dye, primarily stains pyroptotic cells. Therefore, apoptotic cells are typically Annexin-high and Sytox-low, while pyroptotic cells are Annexin-high and Sytox-high (FIG. 7B). For simplicity, in experiments involving only a single death mode, a single relevant dye was often used. To focus on cells influenced by the circuits, the fraction of Annexin- or Sytox-positive cells was calculated after gating on the fluorescent co-transfection marker (FIG. 7C).
On the day before transfection, HEK cells were seeded at a density of 0.3-0.6 million cells per well on a 12-well plate, 0.1-0.3 million cells per well on a 24-well plate, or 15,000-50,000 cells per well on a 96-well plate. The cells were allowed to attach to the plate overnight, for at least 8 hours. On the day of transfection, we treated the cells with purified DNA plasmids encoding circuit components. In addition to plasmids encoding circuit components, we often included a plasmid encoding a fluorescent co-transfection marker, at roughly 50 ng DNA per well on a 24-well plate. Given the different number of molecular components in each synthetic circuit and their various relative ratios, the total amount of DNA ranged from 50 to 1 μg per well on a 24-well plate, and was scaled by […] when other 12-well or 96-well plates were used, respectively. On the same plate, we often equalized the total amount of DNA across all transfected wells, using a filler plasmid encoding the neomycin resistance gene. To transfect cells with plasmid DNA, we used three types of transfection reagents—Lipofectamine 2000 (Thermo Fisher), Lipofectamine 3000 (Thermo Fisher), and FuGENE HD (Promega), according to manufacturers' instructions. Briefly, for a typical transfection experiment on a 24-well plate, we mixed plasmids and the transfection reagent, around 200 ng of DNA per 1 μl of Lipofectamine 2000, in 25 μl of Opti-MEM reduced serum medium (Thermo Fisher), incubated the mixture for 5-10 min at room temperature, and then added another 25 μl of Opti-MEM before transferring the mixture dropwise to culture wells. We also performed some transfection experiments using the Lipofectamine 3000 kit (Thermo Fisher), at a ratio of 2,000 ng of DNA, 2 ul of 4 ul of P3000, and 3 μl of Lipofectamine 3000. We similarly diluted the mixture in Opti-MEM before adding it to cells. For transfection with FuGENE, we used a ratio of 4 μl FuGENE:1 μg of DNA, and incubated the DNA-FuGENE mixture at room temperature for 5 min before transfection. To enable protein expression from plasmids with a doxycycline-inducible promoter, doxycycline was added to the cell culture at a final concentration of 100 ng/mL. In experiments involving Q-VD-OPh, the compound was added to the cell culture at a final concentration of 30 μM, immediately after the cells received the transfection mixture. To transfect cells with in vitro transcribed mRNA, Lipofectamine MessengerMax (Thermo Fisher) was used. Briefly, for transfection of one well in a 96-well plate, 0.1 μL of Lipofectamine MessengerMAX was diluted in 1.25 μL Opti-MEM and incubated for 10 minutes at room temperature. mRNA was then added to Opti-MEM to the appropriate conditions at the following amounts: 12.5 ng of fluorescent co-transfection marker, 56.25 ng of protease, and 56.25 ng of engineered executioner. Diluted mRNA was then added to diluted MessengerMAX reagent and incubated for 5 minutes at room temperature before addition to Jurkat or THP-1 cells in RPMI media. […]

[1] = co-transfected with wildtype GSDME, TEVP and TEVP-activatable caspase-3

B1: I217N: GSDME N-terminal domain mutant I217N; SEQ ID NO: 22 (protein)
chain: MGFAKATRNFLREVDADGDLIAVSNLNDSDKLQLLSLVTKKKRFWCWQRPKYQFLSLTLGDVLIEDQFPSPVVVESDFVKYEGKFANHVSGTLETALGKVKLNLGGSSRVESQSSFGTLRKQEVDLQQLIRDSAERTINLRNPVLQQVLEGRNEVLCVLTQKITTMQKCVISEHMQVEEKCGGIVGIQTKTVQVSATEDGNVTKDSNVVLEIPAATTNAYGVIELYVKLDGQFEFCLLRGKQGGFENKKRIDSVYLDPLVFREFAFIDMPD
For B1, the “inhibition of wildtype GSDME N-induced pyroptosis” value was “capable of inhibiting the wildtype counterpart”, the “pyroptotic activity of GSDME N-terminal domain mutant” value was “defective in inducing pyroptosis” and the “apoptosis, Annexin levels” value [1] was “permitting caspase-3-induced apoptosis, as read out by high Annexin levels”. For the same molecule, the “pyroptosis, Sytox uptake” value [1] was “suppressed pyroptosis, as evidenced by reduced Sytox uptake”, the “pyroptosis, Sytox uptake” value (co-transfected with wildtype GSDME, TEVP and TEVP-activatable caspase-3, listed as GSDME inhibitor) was “pyroptosis could be attenuated to various degrees” and the “inhibition of wildtype GSDME N-induced pyroptosis” value (listed as GSDME N(mut)) was “inhibited wildtype GSDME N-induced pyroptosis”.

B2: wildtype GSDME: natural substrate for caspase-3; SEQ ID NO: 21 (protein)
chain: MGFAKATRNFLREVDADGDLIAVSNLNDSDKLQLLSLVTKKKRFWCWQRPKYQFLSLTLGDVLIEDQFPSPVVVESDFVKYEGKFANHVSGTLETALGKVKLNLGGSSRVESQSSFGTLRKQEVDLQQLIRDSAERTINLRNPVLQQVLEGRNEVLCVLTQKITTMQKCVISEHMQVEEKCGGIVGIQTKTVQVSATEDGNVTKDSNVVLEIPAATTIAYGVIELYVKLDGQFEFCLLRGKQGGFENKKRIDSVYLDPLVFREFAFIDMPDAAHGISSQDGPLSVLKQATLLLERNFHPFAELPEPQQTALSDIFQAVLFDDELLMVLEPVCDDLVSGLSPTVAVLGELKPRQQQDLVAFLQLVGCSLQGGCPGPEDAGSKQLFMTAYFLVSALAEMPDSAAALLGTCCKLQIIPTLCHLLRALSDDGVSDLEDPTLTPLKDTERFGIVQRLFASADISLERLKSSVKAVILKDSKVFPLLLCITLNGLCALGREHS
For B2, the “mode of cell death, Sytox and Annexin double staining” value (background of TEVP activating TEVP-activatable caspase-3) was “caused pyroptosis in response to TEVP-mediated caspase-3 activation” and the “cell death by the protein alone” value (without caspase-3 activation) was “alone did not induce cell death”.

B3: FIG. 1D, third module: GSDMA N-terminal domain fused to TEVP-removable degron; SEQ ID NO: 18 (protein)
chain: MGSPVFEDVTRALVRELNPRGDLTPLDSLIDFKHFRPFCLVLRKRKSTLFWGARYVRTDYTLLDLLEPGSSPSDLTDSGNFSFKNMLDVQVQGLVEVPKTVKVKGTAGLSQSSTLEVQTLSVAPSALENLKKERKLSADHSFLNEMRYHEKNLYVVMEAVEAKQEVTVEQTGNANAIFSLPSLALLGLQGSLNNNKAVTIPKGCVLAYRVRLLRVFLFNLWDIPYICNDSMQTFPKIRRVPCSAFISPTQMISEEPEEEKLIGEGGSGLENLYFQSGSGSISLIAALAVDYVIGMENAMPWNLPADLAWFKRNTLNKPVIMGRHTWESIGRPLPGRKNIILSSQPSTDDRVTWVKSVDEAIAACGDVPEIMVIGGGRVIEQFLPKAQKLYLTHIDAEVEGDTHFPDYEPDDWESVFSEFHDADAQNSHSYCFEILERR
For B3, the “pyroptosis, Sytox staining” value was “removal of the degron by TEVP also induced pyroptosis”.

B4: FIG. 1D, fourth module: GSDMA N-terminal domain with internal TEVP cleavage site; SEQ ID NO: 19 (protein)
chain: MGSPVFEDVTRALVRELNPRGDLTPLDSLIDFKHFRPFCLVLRKRKSTLFWGARYVRTDYTLLDLLEPGSSPSDLTDSGNFSFKENLYFQSNMLDVQVQGLVEVPKTVKVKGTAGLSQSSTLEVQTLSVAPSALENLKKERKLSADHSFLNEMRYHEKNLYVVMEAVEAKQEVTVEQTGNANAIFSLPSLALLGLQGSLNNNKAVTIPKGCVLAYRVRLLRVFLFNLWDIPYICNDSMQTFPKIRRVPCSAFISPTQMISEEPEEEKLIGE
For B4, the “pyroptosis, Sytox staining” value was “abolished its activity”.

B5: FIG. 1D, fifth module: GSDMA N-terminal domain fused to TEVP site-caged N-degron; SEQ ID NOs: 20, 40 (protein)
chain: MGSENLYFQRHKSGAWKLPVSLVKPVFEDVTRALVRELNPRGDLTPLDSLIDFKHFRPFCLVLRKRKSTLFWGARYVRTDYTLLDLLEPGSSPSDLTDSGNFSFKNMLDVQVQGLVEVPKTVKVKGTAGLSQSSTLEVQTLSVAPSALENLKKERKLSADHSFLNEMRYHEKNLYVVMEAVEAKQEVTVEQTGNANAIFSLPSLALLGLQGSLNNNKAVTIPKGCVLAYRVRLLRVFLFNLWDIPYICNDSMQTFPKIRRVPCSAFISPTQMISEEPEEEKLIGEMGSENLYFQRHKSGAWKLPVSLVKPVFEDVTRALVRELNPRGDLTPLDSLIDFKHFRPFCLVLRKRKSTLFWGARYVRTDYTLLDLLEPGSSPSDLTDSGNFSFKNMLDVQVQGLVEVPKTVKVKGTAGLSQSSTLEVQTLSVAPSALENLKKERKLSADHSFLNEMRYHEKNLYVVMEAVEAKQEVTVEQTGNANAIFSLPSLALLGLQGSLNNNKAVTIPKGCVLAYRVRLLRVFLFNLWDIPYICNDSMQTFPKIRRVPCSAFISPTQMISEEPEEEKLIGE
B5 was tested, and the “pyroptosis, Sytox staining” value was “allowed protease-mediated suppression of pyroptosis”.

B6: tobacco vein mottling virus protease (protein)
chain: MGSSKALLKGVRDFNPISACVCLLENSSDGHSERLFGIGFGPYIIANQHLFRRNNGELTIKTMHGEFKVKNSTQLQMKPVEGRDIIVIKMAKDFPPFPQKLKFRQPTIKDRVCMVSTNFQQKSVSSLVSESSHIVHKEDTSFWQHWITTKDGQCGSPLVSIIDGNILGIHSLTHTTNGSNYFVEFPEKFVATYLDAADGWCKNWKFNADKISWGSFTLVEDAPEDDFMAKKTVAAIMDS
notes: viral input protease
In the case of B6, the “activation of cognate engineered GSDMs containing the cleavage sites” value (tev, tvmv and hcv sites) is reported as “orthogonally activated their cognate engineered GSDMs”.

B7: silencer: leucine zipper-fused GSDMA C-terminal domain; SEQ ID NO: 43 (protein)
chain: MGSEQLEKKLQALEKKLAQLEWKNQALEKKLAQGGSGSSMHEDFKTLKEEVQRETQEVEKLSPVGRSSLLTSLSHLLGKKKELQDLEQKLEGALDKGQKVTLEALPKDVLLSKDAMDAILYFLGALTELTEEQLKILVKSLEKKILPVQLKLVESTLEQNFLQDKEGVFPLQPDLLSSLGEEELTLTEALVGLSGLEVQRSGPQYAWDPDTRHNLCALYAGLSLLHLLSRKSNALTYCALS
In the case of B7, the “inhibition of pyroptosis induced by wildtype GSDMA N-terminal domain” value is reported as “did not inhibit pyroptosis”, the “inhibition of pyroptosis induced by zipper-attached GSDMA N-terminal domain (GSDMA N-Z)” value is reported as “markedly suppressed pyroptosis” and the “inhibition of pyroptosis induced by zipper-attached GSDMA N-terminal domain (GSDMA N-Z)” value (listed as GSDMA Z-C) is reported as “potently inhibited an engineered active executioner”.
